In publication PMC7213983:
One block for each substance: values may come before it.

Tests used:
human S100A9 (human) = human S100A9 (human) (UniProt P06702); assay: SEC-MALS; Superose 12 10/300 GL; samples at 0.5-2 mg/ml in tris buffer (25 mM tris, 100 mM NaCl, pH 7.4) + 0.5 mM CaCl2; flow 0.2 ml/min
[1] = biological target: opossum Toll-like receptor 4 (opossum)
[2] = biological target: human S100A9 M63F (human) (UniProt P06702); assay: SEC-MALS; Superose 12 10/300 GL; samples at 0.5-2 mg/ml in tris buffer (25 mM tris, 100 mM NaCl, pH 7.4) + 0.5 mM CaCl2; flow 0.2 ml/min
chicken MRP126 (chicken) = chicken MRP126 (chicken) (UniProt P28318); assay: as above
human S100A12 (human) = human S100A12 (human) (UniProt P80511); assay: as above

stoichiometry N (human S100A9 (human)): 2
Substance: human S100A9 (from UniProt P06702 1-114) (natural protein)

NF-κB luciferase reporter in HEK293T cells transfected with opossum TLR4, MD-2 and CD14; activity against that of human A9 (fold of human A9 activity) [1]: 0.5
Substance: opossum S100A9 (natural protein)

stoichiometry N [2]: 2
Substance: human S100A9 M63F (from UniProt P06702 1-114) (natural protein)

stoichiometry N (chicken MRP126 (chicken)): 2
Substance: chicken MRP126 (from UniProt P28318 1-119) (natural protein)

stoichiometry N (human S100A12 (human)): 2
Substance: human S100A12 (from UniProt P80511 1-92) (natural protein)
